Experimental data taken from paper PMC7139386, “Defects in Galactose Metabolism and Glycoconjugate Biosynthesis in a UDP-Glucose Pyrophosphorylase-Deficient Cell Line Are Reversed by Adding Galactose to the Growth Medium” (International Journal of Molecular Sciences, 2020).
Numbering of substitutions follows the chain as printed. In names and notes the source's numbering stands.

B1: HsUGP (Homo sapiens) (protein)
chain: MSRFVQDLSKAMSQDGASQFQEVIRQELELSVKKELEKILTTASSHEFEHTKKDLDGFRKLFHRFLQEKGPSVDWGKIQRPPEDSIQPYEKIKARGLPDNISSVLNKLVVVKLNGGLGTSMGCKGPKSLIGVRNENTFLDLTVQQIEHLNKTYNTDVPLVLMNSFNTDEDTKKILQKYNHCRVKIYTFNQSRYPRINKESLLPVAKDVSYSGENTEAWYPPGHGDIYASFYNSGLLDTFIGEGKEYIFVSNIDNLGATVDLYILNHLMNPPNGKRCEFVMEVTNKTRADVKGGTLTQYEGKLRLVEIAQVPKAHVDEFKSVSKFKIFNTNNLWISLAAVKRLQEQNAIDMEIIVNAKTLDGGLNVIQLETAVGAAIKSFENSLGINVPRSRFLPVKTTSDLLLVMSNLYSLNAGSLTMSEKREFPTVPLVKLGSSFTKVQDYLRRFESIPDMLELDHLTVSGDVTFGKNVSLKGTVIIIANHGDRIDIPPGAVLENKIVSGNLRILDH
notes: octameric
B2: HsUGP (Homo sapiens; G116D) (protein)
chain: B1 chain with G116D
notes: octameric

Tests used:
Type in all cases: biochemical, Homo sapiens
[1] = substrate: O=P(O)(O)O[C@H]1O[C@H](CO)[C@H](O)[C@H](O)[C@H]1O; assay: continuous assay based on PPi detection, forward reaction, Michaelis-Menten and cooperative fits; conditions: Gal1P varied 0.01-2 mM at 1 mM UTP
[2] = substrate: O=P(O)(O)O[C@H]1O[C@H](CO)[C@@H](O)[C@H](O)[C@H]1O; assay: continuous assay based on PPi detection, forward reaction, Michaelis-Menten fit; conditions: Glc1P varied 0.01-1 mM at 1 mM UTP
[3] = substrate: O=c1ccn([C@@H]2O[C@H](COP(=O)(O)OP(=O)(O)OP(=O)(O)O)[C@@H](O)[C@H]2O)c(=O)[nH]1; assay: as above; conditions: UTP varied 0.01-0.8 mM at 2 mM Glc1P

Protein	Km [1]	Km [2]	Km [3]
B1	842.0 ± 72.8 µM	34.2 ± 1.99 µM	76.29 ± 3.96 µM
B2		53.97 ± 4.11 µM	79.50 ± 4.93 µM
